Data taken from US20220089721A1 (Bayer, published 2022).

T1: human CEACAM6 (carcinoembryonic antigen-related cell adhesion molecule 6) (human, UniProt P40199 35-320)
T1 sequence (looked up): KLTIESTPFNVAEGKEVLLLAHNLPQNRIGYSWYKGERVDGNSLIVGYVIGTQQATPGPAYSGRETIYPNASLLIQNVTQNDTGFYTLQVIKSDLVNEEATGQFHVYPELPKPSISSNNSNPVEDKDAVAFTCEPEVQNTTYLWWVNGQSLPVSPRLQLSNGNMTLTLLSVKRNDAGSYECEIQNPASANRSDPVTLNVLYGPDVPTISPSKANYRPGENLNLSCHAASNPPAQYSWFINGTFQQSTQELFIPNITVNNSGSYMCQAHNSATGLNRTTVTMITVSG


Tests used:
[1] = target: T cell immunoglobulin domain and mucin domain 3 (TIM-3) (human) (UniProt Q8TDQ0); assay: cell-based or functional assay
[2] = target: T1, human CEACAM6 (carcinoembryonic …); assay: cell-based or functional assay

Molecule	IFN-γ in pg/ml, absolute mean, TC + HCC + 0.5 µg/ml FLU pep + 50 µg/ml antibody (isotype Mab006: 735.0) [1] [pg/mL]	IFNg [pg/ml], isotype corrected, FluM1 T cells + HCC2935, single agent 50 µg/ml, experiment 1 [1] [pg/mL]	IFNg [pg/ml], isotype corrected, FluM1 T cells + HCC2935, single agent 50 µg/ml, experiment 2 [1] [pg/mL]	IFNg [pg/ml], isotype corrected, FluM1 T cells + HCC2935, single agent 50 µg/ml, experiment 3 [1] [pg/mL]	IFNg [pg/ml], isotype corrected, FluM1 T cells + HCC2935, single agent 50 µg/ml, experiment 4 [1] [pg/mL]	IFNg [pg/ml], isotype corrected, FluM1 T cells + HCC2935, single agent 50 µg/ml, experiment 5 [1] [pg/mL]	IFNg [pg/ml], isotype corrected, FluM1 T cells + HCC2935, single agent 50 µg/ml, experiment 6 [1] [pg/mL]	IFNg [pg/ml], isotype corrected, FluM1 T cells + HCC2935, single agent 50 µg/ml, experiment 7 [1] [pg/mL]	IFNg [pg/ml], isotype corrected, FluM1 T cells + HCC2935, single agent 50 µg/ml, mean of n = 7 [1] [pg/mL]	Mean IFNg (pg/ml), isotype corrected, survivin-peptide specific T cells + HCC2935 lung cells, single agent 50 µg/ml, n = 1 [1] [pg/mL]	Mean IFNg (pg/ml), isotype corrected, survivin-peptide specific T cells + KS breast cancer cells, single agent 50 µg/ml, n = 1 [1] [pg/mL]	half-maximal effective concentration (EC50) for activation of T cells in co-culture [2] [µg/mL]
MAB2365 (rIgG2, R&D Jackson Immunoresearch), anti-TIM3 antibody	925	65	67.7	37	247	287	288	278	182	63.6	18.3	
anti-CEACAM6 antibody TPP-3310 (antibody, human IgG2, kappa, V domains shown) VH: QVTLRESGPALVKPTQTLTLTCTFSGFSLSTYGIGVGWIRQPPGKALEWLAHIWWNDNKYYSTSLKTRLTISKDTSKNQVVLTMTNMDPVDTATYYCARISLPYFDYWGQGTTLTVSS VL: DIQLTQSPSFLSASVGDRVTITCKASQNVGTAVAWYQQKPGKAPKLLIYSASNRYTGVPSRFSGSGSGTEFTLTISSLQPEDFATYYCQQYSSYPLTFGGGTKVEIKR												~1
